Values of other authors, collected in publication PMC7290323.

Biological target: GPP130 luminal domain (Homo sapiens) (UniProt O00461)
Sequence of UniProt O00461 (O00461 34-696): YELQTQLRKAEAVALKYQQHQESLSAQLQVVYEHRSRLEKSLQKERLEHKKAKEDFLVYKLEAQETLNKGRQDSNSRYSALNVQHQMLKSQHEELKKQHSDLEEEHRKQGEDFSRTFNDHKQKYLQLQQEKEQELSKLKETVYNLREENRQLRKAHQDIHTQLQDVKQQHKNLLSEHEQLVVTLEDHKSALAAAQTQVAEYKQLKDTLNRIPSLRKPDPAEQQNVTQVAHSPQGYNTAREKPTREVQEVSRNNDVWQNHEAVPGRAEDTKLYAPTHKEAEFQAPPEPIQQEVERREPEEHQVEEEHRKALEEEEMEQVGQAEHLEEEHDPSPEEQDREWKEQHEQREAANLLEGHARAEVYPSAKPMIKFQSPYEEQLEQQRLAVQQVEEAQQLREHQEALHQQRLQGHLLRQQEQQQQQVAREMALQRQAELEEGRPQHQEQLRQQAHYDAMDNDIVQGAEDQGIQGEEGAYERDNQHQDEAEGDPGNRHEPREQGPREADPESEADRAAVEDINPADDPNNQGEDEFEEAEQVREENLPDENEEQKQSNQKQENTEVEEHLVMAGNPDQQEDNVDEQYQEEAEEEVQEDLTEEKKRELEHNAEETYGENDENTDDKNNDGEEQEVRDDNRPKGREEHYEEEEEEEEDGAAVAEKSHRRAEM

Q: Which Kd does the source give for “Shiga toxin 1 B subunit (STxB/STx1B) (from UniProt Q32GM0)” here?
A: 150 nM
